Source: article PMC12260427
Where two headings read alike, the source gives them in different places.

How the values were obtained:
alpha-thrombin [1] = biological target: T1, alpha-thrombin (Homo sapiens, UniProt P00734;P00734 328-363;364-622); test: native MS
alpha-thrombin [2] = biological target: T1, alpha-thrombin; test: ITC
alpha-thrombin [3] = biological target: T1, alpha-thrombin; test: ITC; remark: listed apart in the source
alpha-thrombin [4] = biological target: T1, alpha-thrombin; test: ITC; remark: listed apart in the source
alpha-thrombin [5] = biological target: T1, alpha-thrombin; test: EMSA

B1: ss(ATTCG)18 (ssDNA)
DNA: ATTCGATTCGATTCGATTCGATTCGATTCGATTCGATTCGATTCGATTCGATTCGATTCGATTCGATTCGATTCGATTCGATTCGATTCG
binding result (alpha-thrombin [1]): no binding

B2: ss(ATTCC)18 (structured_DNA)
DNA: ATTCCATTCCATTCCATTCCATTCCATTCCATTCCATTCCATTCCATTCCATTCCATTCCATTCCATTCCATTCCATTCCATTCCATTCC
Kd (alpha-thrombin [2]): 1460 nM | Kd (alpha-thrombin [3]): 746 nM | Kd (alpha-thrombin [4]): 174 nM

B3: ss(GGAAT)18 (ssDNA)
DNA: GGAATGGAATGGAATGGAATGGAATGGAATGGAATGGAATGGAATGGAATGGAATGGAATGGAATGGAATGGAATGGAATGGAATGGAAT
binding result (alpha-thrombin [5]): no binding
